In PMC10989752, “LipR functions as an intracellular pH regulator in Bacillus thuringiensis under glucose conditions”:

T1: LipR (Bacillus thuringiensis BMB171, UniProt A0A0G3DYA8 1-337)
T1 sequence: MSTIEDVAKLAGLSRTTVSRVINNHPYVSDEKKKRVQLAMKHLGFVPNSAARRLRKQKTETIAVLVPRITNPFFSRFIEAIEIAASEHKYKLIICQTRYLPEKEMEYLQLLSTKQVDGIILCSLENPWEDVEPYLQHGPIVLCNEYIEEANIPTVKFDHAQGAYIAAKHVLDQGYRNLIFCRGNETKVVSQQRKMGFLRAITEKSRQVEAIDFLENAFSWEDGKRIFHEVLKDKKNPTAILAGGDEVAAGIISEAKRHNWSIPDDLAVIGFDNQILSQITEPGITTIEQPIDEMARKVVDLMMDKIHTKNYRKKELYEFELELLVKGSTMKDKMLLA


Molecular target: T1, LipR
Assay: EMSA; LipR: 25 mM Tris pH 8.5-9, 150 mM NaCl, 10% glycerol; CcpA/AbrB: 50 mM Tris-HCl pH 7.5, 10 mM MgCl2, 1 mM DTT, 100 mM NaCl; 28 C, 25 min, 10 ul; 500 ng poly(dI-dC) when needed; 6% native PAGE, 0.5x TBE
Conditions: protein: recombinant, tags: C-terminal His (pET-28a), chain copies: 2

Binder | binding result | binding result (blunt)
D6 (dsDNA) DNA 1: CAATTTAAGAAAACGTTTTCATG DNA 2: CATGAAAACGTTTTCTTAAATTG | binds | –
18-bp minimal LipR site (dsDNA) DNA 1: TAAGAAAACGTTTTCATG DNA 2: CATGAAAACGTTTTCTTA | – | binds
30-bp footprint fragment (dsDNA) DNA 1: ATATAATCAATTTAAGAAAACGTTTTCATG DNA 2: CATGAAAACGTTTTCTTAAATTGATTATAT | binds | –
